In patent US20110243962A1 (GENEURO, published 2011):
Numbering of substitutions follows the chain as printed.

Legend:
[1] = target: T1, MSRV complete ENV protein (ENV-T), recombinant from E. coli (MSRV (Multiple Sclerosis associated …)); experiment: ELISA; coated ENV-T 7A 0.25; ligand 1 microgram
T1 construct: also called ENV-T 7A; His-ENV-T
T1 chain: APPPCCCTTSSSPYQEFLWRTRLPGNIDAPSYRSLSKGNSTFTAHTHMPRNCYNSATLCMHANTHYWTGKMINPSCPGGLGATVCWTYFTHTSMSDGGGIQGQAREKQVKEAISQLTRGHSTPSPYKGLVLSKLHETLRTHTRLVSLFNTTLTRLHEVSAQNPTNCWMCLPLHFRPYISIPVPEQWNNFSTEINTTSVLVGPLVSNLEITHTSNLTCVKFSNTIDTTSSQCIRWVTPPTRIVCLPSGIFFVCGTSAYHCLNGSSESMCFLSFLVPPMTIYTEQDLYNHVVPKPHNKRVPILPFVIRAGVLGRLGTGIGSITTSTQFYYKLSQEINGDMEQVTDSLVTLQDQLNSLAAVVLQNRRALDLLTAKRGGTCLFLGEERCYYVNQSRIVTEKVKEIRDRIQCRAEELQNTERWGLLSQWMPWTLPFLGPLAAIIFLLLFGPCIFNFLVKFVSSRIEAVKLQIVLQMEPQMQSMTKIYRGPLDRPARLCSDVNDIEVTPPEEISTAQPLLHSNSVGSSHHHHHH
Method: (§1) II-1d Direct ELISA on Microplates Coated with ENV Antigen (ENV-T or ENV-SU as Described Above) [0159] Microwells were coated with 100 μl per well of ENV antigen diluted in 50 mM Sodium Bicarbonate, pH 9.6. Plate were sealed and incubated 2 hours at 37° C. under light agitation. [0160] Microwells were washed 4 times with 250 μl per well of PBS (Phosphate Buffer Saline). After the last, plates were inverted and blotted on absorbent paper to remove any residual buffer. [0161] 100 μl per well of detection antibody according to the present invention (GNbAC1 or its Fab fragment) diluted in PBS+BSA 1% (PBS with 1% of Bovine Serum Albumin) were added. Plate were sealed and incubated 1 hour at room temperature under light agitation. […] Microwells were washed 4 times with 250 μl per well of PBS. After the last, plates were inverted and blotted on absorbent paper to remove any residual buffer. [0163] […] Plate were sealed and incubated 1 hour at room temperature under light agitation. [0164] Microwells were washed 6 times with 250 μl per well of PBS. After the last, plates were inverted and blotted on absorbent paper to remove any residual buffer. [0165] 100 μl par well of Substrate Solution (1 tablet of o-Phenylenediamine (OPD) diluted in 10 ml of 0.05M Phosphate Citrate Buffer pH5+10 μl H2O2 30%, prepared at the last moment) were added. Plates were incubated 30 min at room temperature in the dark. […] 50 μl per well of Stop Solution 2N H2SO₄ were added. [0167] The absorbance was read at 490 nm within 30 minutes of stopping reaction.
(§2) Env-T antigen is coated onto microtiter ELISA plate wells with serial dilutions ranging from 1 μg/ml to about 0.01 μg/ml.

[2] = target: T1, MSRV complete ENV protein (ENV-T), …; experiment: ELISA; ENV 0.03125 ug/ml coated; mAb 1 ug/ml
Method: (§3) Protocol: Incubation 2 h at 37° C. […] Revelation is made by adding OPD substrate and reading optic density with a spectrophotometer after 30 min (Washing steps with PBS are performed between every step).

[3] = target: T1, MSRV complete ENV protein (ENV-T), …; experiment: ELISA; coated ENV-T 7A 0.0156; ligand 1 microgram
Method: as §1, §2

[4] = target: T1, MSRV complete ENV protein (ENV-T), …; experiment: ELISA; ENV 0.0625 ug/ml coated; mAb 1 ug/ml
Method: as §3

[5] = target: T1, MSRV complete ENV protein (ENV-T), …; experiment: ELISA; ENV-T 7A 1 ug/ml coated; mAb 0.0078 ug/ml
Method: as §3

[6] = target: T1, MSRV complete ENV protein (ENV-T), …; experiment: ELISA; coated ENV-T 7A, concentration cell blank (top of series, 1 µg/ml per paragraph 198); ligand 1 microgram
Method: as §1, §2

[7] = target: T1, MSRV complete ENV protein (ENV-T), …; experiment: ELISA; ENV-T 7A 1 ug/ml coated; mAb 0.0625 ug/ml
Method: as §3

[8] = target: T1, MSRV complete ENV protein (ENV-T), …; experiment: ELISA; ENV 0.0156 ug/ml coated; mAb 1 ug/ml
Method: as §3

[9] = target: T1, MSRV complete ENV protein (ENV-T), …; experiment: ELISA; coated ENV-T 7A 0.5; ligand 1 microgram
Method: as §1, §2

[10] = target: T1, MSRV complete ENV protein (ENV-T), …; experiment: ELISA; coated ENV-T 7A 0.0078; ligand 1 microgram
Method: as §1, §2

[11] = target: T1, MSRV complete ENV protein (ENV-T), …; experiment: ELISA; ENV 1 ug/ml coated; mAb 1 ug/ml
Method: as §3

[12] = target: T1, MSRV complete ENV protein (ENV-T), …; experiment: ELISA; ENV-T 7A 1 ug/ml coated; mAb 0.125 ug/ml
Method: as §3

[13] = target: T1, MSRV complete ENV protein (ENV-T), …; experiment: ELISA; coated ENV-T 7A 0.125; ligand 1 microgram
Method: as §1, §2

[14] = target: T1, MSRV complete ENV protein (ENV-T), …; experiment: cell-based or functional assay

B1: GNbAC1 murine monoclonal antibody (IgG1/kappa) (antibody, V domains shown)
VH: QVQLQQSGAELVRPGAPVTLSCKASGYTFTDYEMHWVKQTPVHGLEWIGAVAPETGGTAYNQKFKGKATLTAAKSSSTAYMELRSLTSEDSAVYYCTSTVVPFAYWGQGTLVTVSA
VL: QIVLTQSPAIMSASPGEKVTISCSASSSVSYMYWYQQKPGSSPKAWIYRTSNLASGVPGRFSGSGSGTSYSLTISSMEAEDAATYYCQQYQSLPLTFGSGTKLEIK
notes: Murine IgG1/kappa from hybridoma; also called murine IgG1; muIgG
Q: With B1 as the binder, how does the optical density [1] read?
A: Its optical density is 2.84 OD.

Q: What about the optic density [2] of the same binder?
A: Its optic density is 0.367 OD.

Q: What about the optical density [3] of the same binder?
A: The optical density was 1.3 OD.

Q: And the optic density [4]?
A: The optic density was 0.837 OD.

Q: And the optic density [5]?
A: The optic density was 0.13 OD.

Q: And the optical density [6]?
A: The optical density was 3 OD.

Q: And the optic density [7]?
A: The optic density was 0.585 OD.

Q: What about the optic density [8] of the same binder?
A: Its optic density is 0.186 OD.

Q: What about the optical density [9] of the same binder?
A: Its optical density is 2.9 OD.

Q: And the optical density [10]?
A: Its optical density is 0.625 OD.

Q: And the optic density [11]?
A: Its optic density is 2.22 OD.

Q: What about the optic density [12] of the same binder?
A: Its optic density is 0.945 OD.

Q: And the optical density [13]?
A: The optical density was 2.29 OD.

B2: Chimeric GNb AC1 IgG4 (human IgG4 constant regions with murine VH and VL) (antibody, V domains shown)
VH: B1 VH with P17S
VL: QIVLTQSPAIMSASPGEKVTISCSASSSVSYMYWYQQKPGSSPKAWIYRTSNLASGVPGRFSGSGSGTSYSLTISSMEAEDAATYYCQQYQSLPLTFGSGTKLEIKR
notes: also called GNbAC1 chimeric IgG4; GNbAC1-IgC4
Q: With B2 as the binder, how does the optical density [1] read?
A: The optical density was 2.52 OD.

Q: And the optic density [2]?
A: Its optic density is 1.09 OD.

Q: What about the optical density [3] of the same binder?
A: The optical density was 1.02 OD.

Q: And the optic density [4]?
A: The optic density was 1.55 OD.

Q: What about the optic density [5] of the same binder?
A: Its optic density is 0.474 OD.

Q: What about the optical density [6] of the same binder?
A: Its optical density is 3 OD.

Q: What about the optic density [7] of the same binder?
A: Its optic density is 1.66 OD.

Q: What about the optic density [8] of the same binder?
A: Its optic density is 0.71 OD.

Q: What about the optical density [9] of the same binder?
A: Its optical density is 2.89 OD.

Q: And the optical density [10]?
A: The optical density was 0.692 OD.

Q: And the optic density [11]?
A: The optic density was 2.67 OD.

Q: What about the optic density [12] of the same binder?
A: Its optic density is 1.81 OD.

Q: And the optical density [13]?
A: The optical density was 1.99 OD.

Q: What about the “IL-6 at 24 h in PBMC culture with ENV-T 0.1 ug/ml, MAb ratio 10/1 (no antibody: 4363)” value [14] of the same binder?
A: The value was 2270.

B3: Chimeric GNb AC1 IgG1 (human IgG1 constant regions with murine VH and VL) (antibody, V domains shown)
VH: B1 VH
VL: B1 VL
notes: Human IgG1 heavy constant region and human kappa constant region, made in CHO cells; also called GNbAC1 chimeric IgG1; Ligand in human IgG1
Q: With B3 as the binder, how does the optical density [1] read?
A: The optical density was 2.89 OD.

Q: What about the optic density [2] of the same binder?
A: Its optic density is 1.6 OD.

Q: And the optical density [3]?
A: The optical density was 1.26 OD.

Q: What about the optic density [4] of the same binder?
A: Its optic density is 1.85 OD.

Q: And the optic density [5]?
A: Its optic density is 0.85 OD.

Q: What about the optical density [6] of the same binder?
A: Its optical density is 3 OD.

Q: And the optic density [7]?
A: The optic density was 2.51 OD.

Q: What about the optic density [8] of the same binder?
A: Its optic density is 0.888 OD.

Q: And the optical density [9]?
A: The optical density was 3 OD.

Q: And the optical density [10]?
A: The optical density was 0.815 OD.

Q: What about the optic density [11] of the same binder?
A: The optic density was 2.52 OD.

Q: And the optic density [12]?
A: The optic density was 2.44 OD.

Q: What about the optical density [13] of the same binder?
A: Its optical density is 2.39 OD.
